Laboratory results published in the array DNA melting data of Ke et al..

Assay: melting temperature; UV melt of duplexes

Row | Substance | Tm (sodium 0.07 M, strand 2 µM) [°C] | Tm (sodium 0.12 M, strand 2 µM) [°C] | Tm (sodium 0.22 M, strand 2 µM) [°C] | Tm (sodium 0.62 M, strand 2 µM) [°C] | Tm (sodium 1.02 M, strand 2 µM) [°C] | also measured
1 | GAGATTGTTTCCCTTTCAAA+TTTGAAAGGGAAACAATCTC ((((((((((((((((((((+)))))))))))))))))))) | 49.3 | 52.8 | 57.6 | 62.6 | 65.3 | 
2 | AACGCCGGTAGAGTGCGCGCAA+TTGCGCGCACTCTACCGGCGTT ((((((((((((((((((((((+)))))))))))))))))))))) |  |  |  |  |  | Tm (sodium 0.12 M, strand 5.9 µM): 79.1 °C
3 | TGGATTCTACTCAACCTTAGTCTGG+CCAGACTAAGGTTGAGTAGAATCCA (((((((((((((((((((((((((+))))))))))))))))))))))))) | 59 | 63.1 | 67.1 | 71.3 | 73.6 | 
4 | GCCCCTCCACTGGCCGACGGCAGCAGGCTC+GAGCCTGCTGCCGTCGGCCAGTGGAGGGGC ((((((((((((((((((((((((((((((+)))))))))))))))))))))))))))))) | 76.3 | 79.8 | 83.6 | 87.1 | 87.7 | 
5 | GATGACGCTAGCTAGCTAGGAC+GTCCTAGCTAGCTAGCGTCATC ((((((((((((((((((((((+)))))))))))))))))))))) |  |  |  |  |  | Tm (sodium 0.15 M, strand 1.1 µM): 64 °C
6 | CCATCATTGTGTCTACCTCA+TGAGGTAGACACAATGATGG ((((((((((((((((((((+)))))))))))))))))))) | 55.6 | 59.5 | 63.1 | 67.3 | 68.5 | 
7 | AGCTGCAGTGGATGTGAGAA+TTCTCACATCCACTGCAGCT ((((((((((((((((((((+)))))))))))))))))))) | 59.7 | 63.5 | 67.6 | 71.3 | 73.1 | 
8 | ATGCAATGCTACATATTCGC+GCGAATATGTAGCATTGCAT ((((((((((((((((((((+)))))))))))))))))))) | 55.2 | 59.5 | 62.9 | 67 | 68.9 | 
9 | AATATATAGCTATCGAT+ATCGATAGCTATATATT (((((((((((((((((+))))))))))))))))) |  |  |  |  |  | Tm (sodium 0.12 M, strand 4 µM): 49.7 °C
10 | GTTCACGTCCGAAAGCTCGAAAAAGGATAC+GTATCCTTTTTCGAGCTTTCGGACGTGAAC ((((((((((((((((((((((((((((((+)))))))))))))))))))))))))))))) | 64.3 | 68.2 | 72.1 | 77.1 | 78.7 | 
11 | ACGCCCACAGGATTAGGCTGGCCCACATTG+CAATGTGGGCCAGCCTAATCCTGTGGGCGT ((((((((((((((((((((((((((((((+)))))))))))))))))))))))))))))) | 71.3 | 74.7 | 78.5 | 82.7 | 84 | 
12 | GCGGGCGAGGATCCAGCGCGCG+CGCGCGCTGGATCCTCGCCCGC ((((((((((((((((((((((+)))))))))))))))))))))) |  |  |  |  |  | Tm (sodium 0.12 M, strand 5.3 µM): 77.2 °C
13 | AAGCTATATATATCGAT+ATCGATATATATAGCTT (((((((((((((((((+))))))))))))))))) |  |  |  |  |  | Tm (sodium 0.12 M, strand 5 µM): 50.2 °C
14 | TAGTATATCGCAGCATCATACAGGC+GCCTGTATGATGCTGCGATATACTA (((((((((((((((((((((((((+))))))))))))))))))))))))) | 61.2 | 64.7 | 69.1 | 72.8 | 75 | 
15 | AAAGGTGTCGCGGAGAGTCGTGCTG+CAGCACGACTCTCCGCGACACCTTT (((((((((((((((((((((((((+))))))))))))))))))))))))) | 69.6 | 73.6 | 77.4 | 81.2 | 82.4 | 
16 | CCGTGCGGTGTGTACGTTTTATTCATCATA+TATGATGAATAAAACGTACACACCGCACGG ((((((((((((((((((((((((((((((+)))))))))))))))))))))))))))))) | 63.9 | 68.3 | 71.8 | 76.5 | 77.6 | 
17 | TTATGTATTAAGTTATATAGTAGTAGTAGT+ACTACTACTACTATATAACTTAATACATAA ((((((((((((((((((((((((((((((+)))))))))))))))))))))))))))))) | 50.7 | 55 | 59.3 | 65.1 | 66.6 | 
18 | ACTGGCGAGGATCCAGCGGTCA+TGACCGCTGGATCCTCGCCAGT ((((((((((((((((((((((+)))))))))))))))))))))) |  |  |  |  |  | Tm (sodium 0.12 M, strand 4.1 µM): 71.8 °C
19 | CCCTGCACTTTAACTGAATTGTTTA+TAAACAATTCAGTTAAAGTGCAGGG (((((((((((((((((((((((((+))))))))))))))))))))))))) | 57.4 | 61.4 | 65.6 | 70.1 | 72.5 | 
20 | AATATGAATTCTAATA+TATTAGAATTCATATT ((((((((((((((((+)))))))))))))))) |  |  |  |  |  | Tm (sodium 0.12 M, strand 6 µM): 41.4 °C
21 | AATATATATAGAGTGGCCGCAA+TTGCGGCCACTCTATATATATT ((((((((((((((((((((((+)))))))))))))))))))))) |  |  |  |  |  | Tm (sodium 0.12 M, strand 6 µM): 65.2 °C
22 | CAGTGAGACAGCAATGGTCG+CGACCATTGCTGTCTCACTG ((((((((((((((((((((+)))))))))))))))))))) | 59.8 | 63.5 | 67 | 71.1 | 72.5 | 
23 | CGTACTAGCGTTGGTCATGG+CCATGACCAACGCTAGTACG ((((((((((((((((((((+)))))))))))))))))))) | 59.6 | 63.1 | 66.6 | 70.5 | 71.1 | 

Row | Substance | Tm (sodium 0.07 M, strand 2 µM) [°C] | Tm (sodium 0.12 M, strand 2 µM) [°C] | Tm (sodium 0.22 M, strand 2 µM) [°C] | Tm (sodium 0.62 M, strand 2 µM) [°C] | Tm (sodium 1.02 M, strand 2 µM) [°C] | also measured
24 | TTCCAAAAGGAGTTATGAGTTGCGA+TCGCAACTCATAACTCCTTTTGGAA (((((((((((((((((((((((((+))))))))))))))))))))))))) | 59.1 | 63 | 67.2 | 71.6 | 73.8 | 
25 | AATATATATAGAGTAATTATAA+TTATAATTACTCTATATATATT ((((((((((((((((((((((+)))))))))))))))))))))) |  |  |  |  |  | Tm (sodium 0.12 M, strand 5 µM): 45.1 °C
26 | ATACGCGAGGATCCAGCGCAAT+ATTGCGCTGGATCCTCGCGTAT ((((((((((((((((((((((+)))))))))))))))))))))) |  |  |  |  |  | Tm (sodium 0.12 M, strand 4 µM): 71.1 °C
27 | CTGGTCTGGATCTGAGAACTTCAGG+CCTGAAGTTCTCAGATCCAGACCAG (((((((((((((((((((((((((+))))))))))))))))))))))))) | 62.1 | 65.8 | 69.6 | 74.2 | 75.6 | 
28 | AGATCATATATATCGAT+ATCGATATATATGATCT (((((((((((((((((+))))))))))))))))) |  |  |  |  |  | Tm (sodium 0.12 M, strand 4 µM): 49.2 °C
29 | AAATATAGCTATATTT+AAATATAGCTATATTT ((((((((((((((((+)))))))))))))))) |  |  |  |  |  | Tm (sodium 0.12 M, strand 5 µM): 40.4 °C
30 | CTCGTACCTTTCCGGTCC+GGACCGGAAAGGTACGAG ((((((((((((((((((+)))))))))))))))))) |  |  |  |  |  | Tm (sodium 0.1 M, strand 4 µM): 61.7 °C
31 | AAATATAAGAATTCTTATATTT+AAATATAAGAATTCTTATATTT ((((((((((((((((((((((+)))))))))))))))))))))) |  |  |  |  |  | Tm (sodium 0.12 M, strand 7 µM): 48.9 °C
32 | TCCACACGGTAGTAAAATTAGGCTT+AAGCCTAATTTTACTACCGTGTGGA (((((((((((((((((((((((((+))))))))))))))))))))))))) | 59.3 | 63.1 | 67.3 | 71.8 | 73.8 | 
33 | GTCATACGACTGAGTGCAACATTGTTCAAA+TTTGAACAATGTTGCACTCAGTCGTATGAC ((((((((((((((((((((((((((((((+)))))))))))))))))))))))))))))) | 62.7 | 66.8 | 70.8 | 75.9 | 76.9 | 
34 | ATATATATGAATTCATATATAT+ATATATATGAATTCATATATAT ((((((((((((((((((((((+)))))))))))))))))))))) |  |  |  |  |  | Tm (sodium 0.12 M, strand 6 µM): 48.9 °C
35 | ATGGGTGGGAGCCTCGGTAGCAGCC+GGCTGCTACCGAGGCTCCCACCCAT (((((((((((((((((((((((((+))))))))))))))))))))))))) | 70.7 | 74.5 | 78.2 | 81.6 | 83.4 | 
36 | ATAAATAAAGCTTTATTTAT+ATAAATAAAGCTTTATTTAT ((((((((((((((((((((+)))))))))))))))))))) |  |  |  |  |  | Tm (sodium 0.12 M, strand 7 µM): 46.2 °C
37 | CTTCAACGGATCAGGTAGGACTGTGGTGGG+CCCACCACAGTCCTACCTGATCCGTTGAAG ((((((((((((((((((((((((((((((+)))))))))))))))))))))))))))))) | 67.6 | 71.7 | 74.7 | 78.8 | 80.1 | 
38 | TACTTCCAGTGCTCAGCGTA+TACGCTGAGCACTGGAAGTA ((((((((((((((((((((+)))))))))))))))))))) | 60.3 | 64.4 | 67.7 | 71.6 | 73.6 | 
39 | TAACCATACTGAATACCTTTTGACG+CGTCAAAAGGTATTCAGTATGGTTA (((((((((((((((((((((((((+))))))))))))))))))))))))) | 56.5 | 60.2 | 64.3 | 68.9 | 71.3 | 
40 | AATATATATGAATTCTAATTATAA+TTATAATTAGAATTCATATATATT ((((((((((((((((((((((((+)))))))))))))))))))))))) |  |  |  |  |  | Tm (sodium 0.12 M, strand 4.4 µM): 46.2 °C
41 | GACCTGACGTGGACCGCTCCTGGGCGTGGT+ACCACGCCCAGGAGCGGTCCACGTCAGGTC ((((((((((((((((((((((((((((((+)))))))))))))))))))))))))))))) | 74.4 | 78.4 | 81.5 | 85.2 | 86.4 | 
42 | TAGTGGCGATTAGATTCTGC+GCAGAATCTAATCGCCACTA ((((((((((((((((((((+)))))))))))))))))))) | 57 | 60.6 | 64.8 | 69.1 | 71.2 | 
43 | CTCGTACCTTCCGGTCC+GGACCGGAAGGTACGAG (((((((((((((((((+))))))))))))))))) |  |  |  |  |  | Tm (sodium 0.1 M, strand 4 µM): 60.6 °C
44 | TATGTATATTTTGTAATCAG+CTGATTACAAAATATACATA ((((((((((((((((((((+)))))))))))))))))))) | 44.4 | 47.7 | 52.6 | 57.6 | 61.2 | 
45 | AAATAAATAGCTATTTATTT+AAATAAATAGCTATTTATTT ((((((((((((((((((((+)))))))))))))))))))) |  |  |  |  |  | Tm (sodium 0.12 M, strand 7 µM): 47.1 °C
